In patent publication US20250051407A1, “De novo designed sequence-specific DNA binding proteins” (University of Washington, priority 2023, published 2025):
Entries after “also recorded” stand apart in the source; their conditions may differ.

B1: DBP56: designed DNA-binding protein, SEQ ID NO: 30, DNA target E (protein)
chain: PPPTPFEVAGARIKEERAKLGLTQAELAKVAGVGQATVSRIEKGRKCSWELIEKIFEALKKV
B2: DBP62: designed DNA-binding protein, SEQ ID NO: 36, DNA target F (protein)
chain: KEELEKLLKIIESLPKKFREVIILKFVEGLSYTEIAERLGVSRGAVYSRLRSALKKIEEALKK
B3: DBP60: designed DNA-binding protein, SEQ ID NO: 34, DNA target E (protein)
chain: DIEKIAKAVKELREELGLTQAEFAKKIGIGQGTLSRFEKGGVLSPKTMERLLKALEKEFGFDVKK
B4: DBP43: designed DNA-binding protein, SEQ ID NO: 17, DNA target G (protein)
chain: MEELKKLLESGDPKLQGEAVKKIREKLGLTQREFGKKIGVGQAKVSRIEAGKIKLTPELKEKILE
B5: DBP5: designed DNA-binding protein, SEQ ID NO: 3, DNA target A (protein)
chain: GFGKAVKAKRAELGLTQAEFAERAGLSRRTIIRIEQGKVKATSTTAEKIAAALGTTVQELEQA
B6: DBP89: designed DNA-binding protein, SEQ ID NO: 48, DNA target A (protein)
chain: SPAAFDKLTARELAVARLVAQGLPNREIAAALHISPRAVEAHLRKIYRKLGIRRRRELAALLA
B7: DBP47: designed DNA-binding protein, SEQ ID NO: 21, DNA target D (protein)
chain: MTPEERERAKEIGREIRELRRERGLTQRELADLLGVSRSTVSDIESGRRLPSEELLRRIREILGV

Experiments:
13 unique dsDNA targets = experiment: All-by-all yeast surface display screen of DBP design hits; assay type: binding; conditions: for Target sequence preference: 13 unique dsDNA targets; for Number of the 13 tested DNA target sequences preferentially bound: including designed target sequence; for Binding specificity versus design models: all-by-all screen with Rosetta-predicted motifs
Description: And an all-by-all screen of DBP design hits to 13 unique dsDNA targets was performed (FIG. 4, table 2). […] To try to understand these observed binding preferences, each tested DNA sequence was threaded onto each design complex model at all possible base pair alignments, the alternative complex models were relaxed with Rosetta™, and the model with the most favorable Rosetta™ ΔΔG was selected.
Saccharomyces cerevisiae EBY100 strain cultures were grown in C-Trp-Ura medium supplemented with 2% (w/v) glucose. For induction of expression, yeast cells were centrifuged at 6,000 g for 1 min and resuspended in SGCAA medium supplemented with 0.2% (w/v) glucose at the cell density of 1×10^7 cells per ml and induced at 30° C. for 16-24 h. Cells were washed with PBSF (PBS with 1% (w/v) BSA) and labeled with biotinylated targets using two labeling methods: with-avidity and without-avidity labeling. For the with-avidity method, the cells were incubated with biotinylated target, together with anti-c-Myc fluorescein isothiocyanate (FITC, Miltenyi Biotech) and streptavidin-phycoerythrin (SAPE, ThermoFisher). The concentration of SAPE in the with-avidity method was used at one-quarter of the concentration of the biotinylated targets. For the without-avidity method, the cells were first incubated with biotinylated targets, washed and secondarily labeled with SAPE and FITC.
(§1) For yeast display characterization of individual designs, including competition assays, DNA sequences encoding the proteins of interest were purchased as Integrated DNA Technologies (IDT) E-Blocks™, transformed into yeast cells, and incubated in 96 well culture plates. Labeling with biotinylated dsDNA targets and SAPE/FITC was performed in a 96 well plate format. For yeast display competition assays, labeling was performed without avidity using 1 μM biotinylated dsDNA duplex oligos and an excess of 8 μM non-biotinylated competitor dsDNA duplex oligos. […] Flow cytometry analysis was performed with an Attune NxT™ flow cytometer with autosampler. Flow cytometry data analysis was performed using custom python code and the CytoFlow™ python package. For each individual sample, gating of the expression population was performed using the CytoFlow™ Gaussian Mixture Model and the ratio of SAPE channel intensity to FITC channel intensity (binding signal/expression signal) was calculated for all gated expression events of the sample.

[1] = test system: synTF-specific cis-regulatory elements (CRE) in HEK293T cells; experiment: Transcriptional activation by synTFs in HEK293T cells (ENGRAM); assay type: cell-based; conditions: DBP fused to GCN4 dimerization domain and VP64; HEK293T cells expressing PEmax; dependent on spacing between motifs
Description: Next, we investigated whether the DBPs can be used as activators in mammalian cells. A set of synthetic transcription factors (synTFs) were created by fusing the GCN4 dimerization domain and the VP64 activation domain to the C-termini of DBPs 9, 35opt, 48, 57, and 60 which recognize 3 unique motifs. The dimerization domain allows the DBPs to recognize a palindromic target sequence consisting of two binding motifs, improving the binding affinity to the DNA sequence (FIG. 2C). We created synTF specific cis-regulatory elements (CRE) with 4 repeats spaced by 6 bp to drive the expression of downstream genes, and used the ENGRAM (43) recording technology to measure the activity of the synTFs in HEK293 cells. In ENGRAM, each CRE drives the expression of a uniquely barcoded pegRNA, which upon expression is recorded into the DNA TAPE at the HEK3 locus by prime-editor (PEmax); the activity of individual synTFs can be measured as the abundance of the barcode on the DNA TAPE (FIG. 2C). We first tested 3 different spacings-1 bp, 3 bp, and 5 bp-between the palindromic binding motifs to maximize the recorder activity. 3 synTF specific recorders and 1 TCF-LEF-recorder (negative control) were mixed with ratio 2:2:2:1 and co-transfected with synTFs into the HEK293T cells expressing PEmax. Cells were harvested and analyzed 2 days post-transfection. After analyzing the barcode abundance on the DNA TAPE, we observed 3-5 fold activation for DBP9/DBP35 and DBP57/DBP60 (FIG. 2D).
HEK293T cells expressing PEmax™ were cultured in DMEM High glucose (GIBCO), supplemented with 10% Fetal Bovine Serum (Rocky Mountain Biologicals) and 1% penicillin-streptomycin (GIBCO). Cells were grown with 5% CO2 at 37° C. 1×10^5 cells were seeded on a 48-well plate a day before transfection. Enhancer plasmid and binder plasmid were mixed with a ratio of 2:1. Enhancer variants and background control were mixed with a ratio of 2:2:2:1. A total of 300 ng of plasmid were transfected using Lipofectamine™ 3000 (ThermoFisher, L3000015), following the manufacturer's protocol. Cells were harvested 2 days post-transfection. Genomic DNA was extracted based on the protocol described earlier (43). Briefly, cells were lysed using freshly prepared lysis buffer (10 mM Tris-HCl, pH 7.5; 0.05% SDS; 25 µg/ml protease (ThermoFisher)) for each well. The genomic DNA mixture was incubated at 50° C. for 1 h, followed by an 80° C. enzyme inactivation step for 30 min. The DNA TAPE was amplified from the genomic DNA directly for next generation sequencing. Recorded information was extracted via custom analysis code. Each enhancer has a unique barcode representing its activity. Transcription activation was measured as the fold change in the barcode abundance relative to the negative control barcode. All measurements were performed in triplicates.

[2] = test system: biotinylated target dsDNA with non-biotinylated competitor dsDNA; experiment: Yeast display competition assay with base-substituted competitor dsDNA; assay type: binding; conditions: all possible base mutations at each position of the competitor oligo
Description: We used a yeast display competition assay to characterize the DNA binding site specificity of a subset of the designs (FIG. 1A-E, left; FIG. 5). Addition of non-biotinylated competitor dsDNA to biotinylated target sequence reduced binding signal by flow cytometry (FIG. 1A-E, middle). […] For example, in DBP6 (FIG. 1A) R31 and R36 in the design model form bidentate hydrogen bonds with the guanines of base pair positions G12 and C9, respectively, while T32 forms a hydrogen bond with C10.
as §1

Molecule	Target sequence preference (13 unique dsDNA targets)	Number of the 13 tested DNA target sequences preferentially bound (13 unique dsDNA targets; 1 μM dsDNA with avidity)	Binding specificity versus design models (13 unique dsDNA targets)	further results
DBP52: designed DNA-binding protein, SEQ ID NO: 26, DNA target E (RPLTPAEVFGRELRRLRRAAGLTQAELAERAGIGQGTVSRYEHGRRLPSPEEQERLLAAL)	strong preference for 2 or 3 of the sequence targets	–	–	–
DBP69: designed DNA-binding protein, SEQ ID NO: 38, DNA target C (MKEEGRKLKELRERLGLTQAELAEALGLGQSTISRLERGRKEISPEVWEKALALLE)	–	less than 3	bound with specificity closely consistent with the design models	–
DBP51: designed DNA-binding protein, SEQ ID NO: 25, DNA target E (MEADPAVVFGRRLRAARRAKGLTQAELAERAGLGQGTISRYEKGRTLPSPEQVEKLLAAL)	–	less than 3	bound with specificity closely consistent with the design models	–
DBP90: designed DNA-binding protein, SEQ ID NO: 49, DNA target A (NKYQLSLLESAFQSNRYPDISQRATLASQTGLPERRIKIWFQNRRQRWKRKK)	–	–	–	Binding to initial design target (13 unique dsDNA targets; yeast surface display, 1 μM dsDNA with avidity): bound weakly; Binding to alternate target sequence (13 unique dsDNA targets; yeast surface display, 1 μM dsDNA with avidity, alternate target H (DBP90), D (DBP48), C (DBP57)): strongly
DBP44: designed DNA-binding protein, SEQ ID NO: 18, DNA target G (KEERVLAALEAHPWSTLAEIAELTGLSRSTVSRILSRLRKEGKCDSRREGRKVRYWLVRR)	bound to most of the targets	–	–	–
DBP23: designed DNA-binding protein, SEQ ID NO: 9, DNA target B (PLAELGKAIKEARKRKGLTQAEVAKAAGVSRATVQRLELGKAKSIRPDKLRAILEVVGL)	bound to most of the targets	–	–	–
DBP83: designed DNA-binding protein, SEQ ID NO: 43, DNA target A (PREREILRLLAEGKNAWEIAQILNISVRTVRNHLRNAMRKLGARNRVQAVARALRLG)	–	less than 3	–	–
DBP9: designed DNA-binding protein, SEQ ID NO: 6, DNA target B (DWERRCAYARRARKELGLTQAELGELAGVSRTTVSRIERGKPDVSEASVEAVLAVL)	strong preference for only their designed target sequence	less than 3	bound with specificity closely consistent with the design models	Fold activation of synTFs measured as normalized barcode abundance in the DNA TAPE [1]: 3-5 fold; DNA binding site specificity [2]: specificity for a 6 nucleotide stretch (TGCACA) with peripheral dependence on T8 and A13
B1	–	less than 3	bound with specificity closely consistent with the design models	DNA binding site specificity [2]: specificities consistent with the designed sidechain-base interactions
B2	strong preference for only their designed target sequence	less than 3	bound with specificity closely consistent with the design models	DNA binding site specificity [2]: dependent on bases peripheral to the binding site (e.g. C11); also recorded: exhibited specificity for its target site
B3	strong preference for 2 or 3 of the sequence targets	less than 3	bound with specificity closely consistent with the design models	Fold activation of synTFs measured as normalized barcode abundance in the DNA TAPE [1]: 3-5 fold
B4	–	–	bound with specificity closely consistent with the design models	–
B5	–	–	bound with specificity closely consistent with the design models	–
B6	bound to most of the targets	–	–	–
B7	–	less than 3	bound with specificity closely consistent with the design models	–
